Results published in patent US5458874A, “Method of increasing monocyte chemotaxis with CAP37 and monocyte chemotactic portions thereof” (Emory University, priority 1992, dated 1995).
Entries after “also recorded” stand apart in the source; their conditions may differ.

Assays:
human monocytes = assay: Monocyte chemotaxis, modified Boyden chamber technique; format: cell-based; details: for Distance migrated in μm: chemoattractant conc. 10^-9 M
Experimental: (§1) Chemotaxis was measured using the modified Boyden chamber technique (Snyderman et al.). The leading front method (Zigmond et al.) was used to assess migration of monocytes and lymphocytes through a 8 μm filter (Millipore Corporation, Bedford, Mass.). PMN chemotaxis was measured using a 3 μm filter (Millipore). The purified CAP37 protein (Example 1) used in chemotaxis assays were endotoxin-free as determined by the Limulus Amoebocyte Lysate Assay (Whittaker Bioproducts, Inc., Walkersville, Md.). The dilutions of CAP37 and N-formyl-methionyl-leucyl-phenylalanine (FMLP) were made in Geys buffer (Gibco) containing 2% endotoxin-free bovine serum albumin (BSA). Geys buffer containing 2% BSA served as the negative control, and a […] solution of FMLP as the positive control.
(§2) The chambers were incubated in a humidified atmosphere (6.2% CO2) for 2 hours when testing monocytes and lymphocytes, and for 30 minutes when testing PMNs. The filters were then removed and processed as previously described (Snyderman et al.). The cells were viewed using oil immersion and the distance the cells had migrated into the filter was determined over five different fields on the same slide (Zigmond et al.). Triplicate assays were performed for each experimental point.
The three peptides were tested for chemotactic activity towards monocytes using the modified Boyden Chamber technique described in Example 2. The monocyte chemotactic activity of each peptide fragment at concentrations ranging from 10^-7 to 10^-13 M was compared with Geys buffer (negative control), FMLP 10^-8 M (positive control) and purified CAP37 10^-9 M (positive control). […] The effect of peptide 1 on monocyte chemotaxis is illustrated in Table 2 while the effect of peptide 3 on monocyte chemotaxis is illustrated in Table 3.

rabbit monocytes = assay: Rabbit monocyte chemotaxis; format: cell-based; details: 1000 ng/ml (2.7×10^-8 M)
Experimental: Peripheral blood mononuclear cells from adult female rabbits, were separated on a 61% PERCOLL (Pharmacia) gradient (Chambers et al.). This technique separated the mononuclear cells from the RBC and PMNs. No further separation of monocytes from lymphocytes was undertaken with the rabbit blood.
as §1
as §2, with “The filters were then removed and processed as previously described (Snyderman et al.).” left out, “Triplicate assays were performed for each experimental point.” left out

Re LPS from Salmonella = assay: Neutralization of LPS activity, limulus amebocyte lysate (LAL) assay, Re LPS; format: biochemical
Experimental: (§3) Further, the neutralization of LPS activity, as assayed by the limulus amebocyte lysate (LAL) assay, by CAP37 was measured. CAP37 was diluted to the desired concentrations (from 6.2 ng/ml to 500 ng/ml) in geys buffered saline pH 7 (GIBCO). To this wild type LPS (RIBI IMMUNOCHEM) or Re LPS from Salmonella (David Morrison, Kansas Medical Center) was added so that the final concentrations were 0.1, 0.5, 1.0 and 2.0 ng/ml LPS. The tubes were incubated at 37° C. for between 30 to 60 minutes and then assayed in the chromogenic LAL assay, using polymyxin E as a control.
(§4) As discussed in Example 11, peptides can be screened for lipopolysaccharide neutralizing capacity using the LAL assay also. The CAP37 peptide was diluted to the desired concentrations (from 125 ng/ml to 4000 ng/ml) in geys buffered saline pH 7 (GIBCO). To this is added the wild type LPS (RIBI IMMUNOCHEM) or Re LPS from Salmonella (David Morrison, Kansas Medical Center) so that the final concentration is 0.1, 0.5, and 1.0 ng/ml LPS. The tubes were incubated at 37° C. for between 30 to 60 minutes and then assayed in the chromogenic LAL assay.

monocytes = assay: Checkerboard assay (chemokinesis); format: cell-based, human
wild type LPS = assay: Neutralization of LPS activity, limulus amebocyte lysate (LAL) assay, wild type LPS; format: biochemical
Experimental: as §3, §4

Salmonella LT2 = details: (Shafer, 1986); cited from earlier work
[1] = tested on: LPS from S. minnesota wild type; LPS from S. minnesota Re mutant; assay: ELISA, binding of CAP37 to LPS; details: CAP37 at 120 ng/well; LPS 0 to 50 μg/ml
Experimental: (§5) The LPS from S. minnesota wild type, S. minnesota Re mutant, Lipid A from S. minnesota R595, and Lipid A from S. typhimurium Re mutant were applied to microtiter wells at concentrations ranging from 0 to 50 μg/ml and incubated overnight. The trays were then incubated with CAP37 at 120 ng/well for 1 hour at 37° C. The next incubation was with a rabbit antiserum against CAP37 (1:400 dilution) and the color development was as previously described (Pereira et al., 1989) and the absorbance was read at 492 nm.

P. mirabilis Re45 = details: (Shafer, 1986); cited from earlier work
[2] = tested on: Lipid A from S. minnesota R595; Lipid A from S. typhimurium Re mutant; assay: ELISA, binding of CAP37 to Lipid A; details: CAP37 at 120 ng/well; Lipid A 0 to 50 μg/ml
Experimental: as §5

lymphocytes = assay: Lymphocyte chemotaxis, modified Boyden chamber technique; format: cell-based, human; details: range employed in these experiments
Experimental: as §1, §2

B1: CAP37: granule-associated cationic protein (mol. wt. 37,000 daltons) from human PMN, 222 amino acid mature protein (protein)
chain: IVGGRKARPRQFPFLASIQNQGRHFCGGALIHARFVMTAASCFQSQNPGVSTVVLGAYDLRRRERQSRQTFSISSMSENGYDPQQNLNDLMLLQLDREANLTSSVTILPLPLQNATVEAGTRCQVAGWGSQRSGGRLSRFPRFVNVTVTPEDQCRPNNVCTGVLTRRGGICNGDGGTPLVCEGLAHGVASFSLGPCGRGPDFFTRVALFRDWIDGVLNNPGP
Distance migrated in μm (human monocytes; Table 2): 78.4 μm
Distance migrated in μm (human monocytes; Table 3): 73.6 μm
monocyte chemotactic activity (in words) (human monocytes; modified Boyden chamber): as effective as FMLP; also recorded: strong chemotactic properties
chemotactic for rabbit monocytes (rabbit monocytes): chemotactic
neutralization of Re LPS activity (LAL assay) (Re LPS from Salmonella): significantly neutralized LPS activity
chemokinetic effect on monocytes (monocytes): some chemokinetic effect
neutralization of wild type LPS activity (LAL assay) (wild type LPS): significantly neutralized LPS activity
% survival with CAP 37 (Salmonella LT2): 43%
binding to LPS (ELISA) [1]: capable of binding Re LPS
% survival with CAP 37 (P. mirabilis Re45): 100%
binding to Lipid A (ELISA) [2]: capable of binding LPS and, in particular, Lipid A; also recorded: able to bind to Lipid A better than wild type LPS
effect on lymphocyte chemotaxis (lymphocytes): did not have any effect
